Positions count from the first letter of the chain named.
Tests used:
[1] = target: T1, human c-Kit-Fc fusion protein (human, UniProt P10721 26-520, limits assumed); assay: ELISA, coated human c-Kit-Fc, against AMG191
T1 construct: not shown: Fc part of the fusion protein
Procedure: (§1) Antigen binding activity measurement by ELISA. 96-well plates (Nunc, Roskilde, Denmark) were coated with 1 ug/ml human c-Kit-Fc fusion protein in phosphate-buffered saline (PBS) for 16 hr at 4° C. After blocking for 1 hr with 0.4% BSA in PBS at room temperature, anti-c-Kit antibodies were added in 1/3 sequential dilutions, and incubated for 1 hr at room temperature. Plates were subsequently washed three times and incubated with HRP-conjugated goat anti-human kappa-specific antibody for 1 hr at room temperature. After washing, plates were developed with TMB. The reaction was stopped with 2M […], and OD was measured at 450 nm.

[2] = target: T1, human c-Kit-Fc fusion protein; assay: ELISA, coated human c-Kit-Fc, FIG. 2C (members named at paragraph 117)
Procedure: as §1

[3] = target: T1, human c-Kit-Fc fusion protein; assay: ELISA, coated human c-Kit-Fc, FIG. 2D (members named at paragraph 117)
Procedure: as §1

[4] = target: T1, human c-Kit-Fc fusion protein; assay: ELISA, coated human c-Kit-Fc; AMG191 is the reference
Procedure: as §1

[5] = target: T1, human c-Kit-Fc fusion protein; assay: ELISA, coated human c-Kit-Fc, FIG. 3D, against AMG191 (members named at paragraph 118)
Procedure: as §1

[6] = target: T1, human c-Kit-Fc fusion protein; assay: ELISA, coated human c-Kit-Fc, FIG. 3C, against AMG191
Procedure: as §1

[7] = target: T1, human c-Kit-Fc fusion protein; assay: ELISA, coated human c-Kit-Fc
Procedure: as §1

T1 sequence (P10721 26-520 limits assumed): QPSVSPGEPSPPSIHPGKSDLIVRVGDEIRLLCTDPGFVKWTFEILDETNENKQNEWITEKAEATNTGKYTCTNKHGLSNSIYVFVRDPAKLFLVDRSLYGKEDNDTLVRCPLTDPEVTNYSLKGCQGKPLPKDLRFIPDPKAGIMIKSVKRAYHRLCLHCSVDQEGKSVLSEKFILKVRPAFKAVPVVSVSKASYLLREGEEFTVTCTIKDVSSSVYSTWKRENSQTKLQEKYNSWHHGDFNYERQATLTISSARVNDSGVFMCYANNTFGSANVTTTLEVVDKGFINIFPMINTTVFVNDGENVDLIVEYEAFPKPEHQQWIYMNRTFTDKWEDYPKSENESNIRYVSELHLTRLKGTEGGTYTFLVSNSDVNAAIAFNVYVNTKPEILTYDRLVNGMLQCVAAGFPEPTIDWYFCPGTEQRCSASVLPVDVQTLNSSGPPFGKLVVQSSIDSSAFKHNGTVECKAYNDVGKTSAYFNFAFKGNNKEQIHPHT

B1: AF11 (antibody, V domains shown)
VH: QVQLVQSGAEVKKPGASVKVSCKASGYTFTSYNMHWVRQAPGQGLEWMGVIYSGNGDTSYAQKFKGRVTITADKSTSTAYMELSSLRSEDTAVYYCARERDTRFGNWGQGTLVTVSS
VL: DIVMTQSPDSLAVSLGERATINCRASESVDIYGQSFMHWYQQKPGQPPKLLIYLASNLESGVPDRFSGSGSGTDFTLTISSLQAEDVAVYYCQQNNEDPYTFGGGTKVEIK
B1: binds [1].

B2: AF12 (antibody, human IgG1, V domains shown)
VH: B1 VH with A61N, K65Q
VL: B1 VL
B2: binds [2].

B3: AF112 (antibody, human IgG1, V domains shown)
VH: B1 VH with K65Q
VL: B1 VL
B3: binds [2].

B4: AF-2-1 (antibody, V domains shown)
VH: B1 VH with N55Q, A61N
VL: B1 VL
B4: binds [3].

B5: AF-3 (antibody, V domains shown)
VH: B1 VH with A61N, E99D
VL: B1 VL
B5: binds [3].

B6: AMG191 (antibody, V domains shown)
VH: B1 VH with A61N
VL: B1 VL with Q34N
notes: Humanized form of HB-10716; constant region has an N to E mutation of position 297 (unglycosylated, silenced Fc); kappa light chain implied by the anti-human kappa detection
B6: binds [4].

B7: NF11 (antibody, V domains shown)
VH: EVQLLESGGGLVQPGGSLRLSCAASGFTFTSYNMHWVRQAPGKGLEWVGVIYSGNGDTSYAQKFKGRFTISADKSKNTAYLQMNSLRAEDTAVYYCARERDTRFGNWGQGTLVTVSS
VL: DIVMTQSPLSLPVTPGEPASISCRASESVDIYGQSFMHWYLQKPGQSPQLLIYLASNLESGVPDRFSGSGSGTDFTLKISRVEAEDVGVYYCQQNNEDPYTFGGGTKVEIK
B7: binds [5].

B8: NF (antibody, V domains shown)
VH: B7 VH with A61N
VL: B7 VL with Q34N
notes: also called antibody with the new frameworks (NF)
B8: binds [6].

B9: NF12 (antibody, V domains shown)
VH: B7 VH with A61N, K65Q
VL: B7 VL
B9: binds [7].

B10: NF112 (antibody, human IgG1, V domains shown)
VH: B7 VH with K65Q
VL: B7 VL
B10: binds [7].

B11: HF112 (antibody, human IgG1, V domains shown)
VH: B1 VH with K65Q
VL: B7 VL
B11: binds [7].
